Assay results published in US20230212549A1 (3B PHARMACEUTICALS, published 2023).
Values joined by “and” are separate entries in the source; they are usually repeats but may differ in a detail not shown here. Identical values can stand only once. Numbered stars: 1 amine (or outer) side, 2 acyl side, 3 side chain; on linkers, the order of the positions; unused ones are H or OH. Bridge positions count the residues as written; N and C are the ends. Square brackets hold non-standard residues; d marks the D form. Primed or numbered codes have the meaning given here. * marks the point of attachment. Ttds″ = 1,13-diamino-4,7,10-trioxatridecan-succinamic acid spacer, O=C(CCC(=O)[*:2])NCCCOCCOCCOCCCN[*:1]; Ttds = 1,13-diamino-4,7,10-trioxatridecan-succinamic acid, O=C(CCC(=O)[*:2])NCCCOCCOCCOCCCN[*:1]; DOTA = O=C(O)CN1CCN(CC(=O)O)CCN(CC(=O)*)CCN(CC(=O)O)CC1; mXylylene = c1cc(C[*:1])cc(C[*:2])c1; NMeF = CN[C@@H](Cc1ccccc1)C(=O)O; 4Amb = NCc1ccc(C(=O)O)cc1; Hexanoyl = CCCCCC(=O)*; βAla = NCCC(=O)O

B1: Ac-Met-[cys(3MeBn)-Pro-Pro-Thr-Glu-Phe-cys]-Asp-His-Phe-Arg-Asp-NH2 (peptide)
peptide: Ac-M[dC]PPTEF[dC]DHFRD-NH2
modifications: linker 2-8 via mXylylene
SMILES: CSCC[C@H](NC(C)=O)C(=O)N[C@@H]1CSCc2cccc(c2)CSC[C@H](C(=O)N[C@@H](CC(=O)O)C(=O)N[C@@H](Cc2c[nH]cn2)C(=O)N[C@@H](Cc2ccccc2)C(=O)N[C@@H](CCCNC(=N)N)C(=O)N[C@@H](CC(=O)O)C(N)=O)NC(=O)[C@H](Cc2ccccc2)NC(=O)[C@H](CCC(=O)O)NC(=O)[C@H]([C@@H](C)O)NC(=O)[C@@H]2CCCN2C(=O)[C@@H]2CCCN2C1=O
notes: also called 3BP-3181
B2: Ac-Met-[Cys(3MeBn)-Pro-pro-Thr-Glu-Phe-Cys]-Asp-His-Phe-Arg-Asp-NH2 (peptide)
peptide: Ac-MCP[dP]TEFCDHFRD-NH2
modifications: linker 2-8 via mXylylene
SMILES: CSCC[C@H](NC(C)=O)C(=O)N[C@H]1CSCc2cccc(c2)CSC[C@@H](C(=O)N[C@@H](CC(=O)O)C(=O)N[C@@H](Cc2c[nH]cn2)C(=O)N[C@@H](Cc2ccccc2)C(=O)N[C@@H](CCCNC(=N)N)C(=O)N[C@@H](CC(=O)O)C(N)=O)NC(=O)[C@H](Cc2ccccc2)NC(=O)[C@H](CCC(=O)O)NC(=O)[C@H]([C@@H](C)O)NC(=O)[C@H]2CCCN2C(=O)[C@@H]2CCCN2C1=O
notes: also called 3BP-3177
B3: Ac-met-[Cys(tMeBn(DOTA-AET))-Pro-Pro-Thr-Gln-Phe-Cys]-OH (peptide)
peptide: MCPPTQFC
modifications: N-term acetyl; D-Met1; Cys2/Cys8 thioether-bridged by tMeBn carrying DOTA-AET; C-term free acid
notes: also called 3BP-3682
B4: Hex-[Cys(3MeBn)-Pro-Pro-Thr-Glu-Phe-Cys]-Pamb-Arg-NH2 (peptide)
peptide: Hexanoyl-CPPTEFC[4Amb]R-NH2
modifications: linker 1-7 via mXylylene
SMILES: CCCCCC(=O)N[C@H]1CSCc2cccc(c2)CSC[C@@H](C(=O)NCc2ccc(C(=O)N[C@@H](CCCNC(=N)N)C(N)=O)cc2)NC(=O)[C@H](Cc2ccccc2)NC(=O)[C@H](CCC(=O)O)NC(=O)[C@H]([C@@H](C)O)NC(=O)[C@@H]2CCCN2C(=O)[C@@H]2CCCN2C1=O
notes: also called 3BP-3303
B5: DOTA-Bal-[Cys(3MeBn)-Pro-Pro-Thr-Glu-Phe-Cys]-Asp-His-Nmf-Arg-Asp-NH2 (peptide)
peptide: {DOTA}-[βAla]CPPTEFCDH[NMeF]RD-NH2
modifications: linker 2-8 via mXylylene
SMILES: C[C@@H](O)[C@@H]1NC(=O)[C@@H]2CCCN2C(=O)[C@@H]2CCCN2C(=O)[C@@H](NC(=O)CCNC(=O)CN2CCN(CC(=O)O)CCN(CC(=O)O)CCN(CC(=O)O)CC2)CSCc2cccc(c2)CSC[C@@H](C(=O)N[C@@H](CC(=O)O)C(=O)N[C@@H](Cc2c[nH]cn2)C(=O)N(C)[C@@H](Cc2ccccc2)C(=O)N[C@@H](CCCNC(=N)N)C(=O)N[C@@H](CC(=O)O)C(N)=O)NC(=O)[C@H](Cc2ccccc2)NC(=O)[C@H](CCC(=O)O)NC1=O
notes: also called 3BP-3264
B6: DOTA-Ttds-Glu-[Cys(3MeBn)-Pro-Pro-Thr-Glu-Phe-Cys]-Asp-His-Phe-Arg-Asp-NH2 (peptide)
peptide: {DOTA}-[Ttds″]ECPPTEFCDHFRD-NH2
modifications: linker 3-9 via mXylylene
SMILES: C[C@@H](O)[C@@H]1NC(=O)[C@@H]2CCCN2C(=O)[C@@H]2CCCN2C(=O)[C@@H](NC(=O)[C@H](CCC(=O)O)NC(=O)CCC(=O)NCCCOCCOCCOCCCNC(=O)CN2CCN(CC(=O)O)CCN(CC(=O)O)CCN(CC(=O)O)CC2)CSCc2cccc(c2)CSC[C@@H](C(=O)N[C@@H](CC(=O)O)C(=O)N[C@@H](Cc2c[nH]cn2)C(=O)N[C@@H](Cc2ccccc2)C(=O)N[C@@H](CCCNC(=N)N)C(=O)N[C@@H](CC(=O)O)C(N)=O)NC(=O)[C@H](Cc2ccccc2)NC(=O)[C@H](CCC(=O)O)NC1=O
notes: also called 3BP-3173
B7: DOTA-Ttds-Phe-[Cys(3MeBn)-Pro-Pro-Thr-Glu-Phe-Cys]-Asp-His-Phe-Arg-Asp-NH2 (peptide)
peptide: {DOTA}-[Ttds]FCPPTEFCDHFRD-NH2
modifications: linker 3-9 via mXylylene
SMILES: C[C@@H](O)[C@@H]1NC(=O)[C@@H]2CCCN2C(=O)[C@@H]2CCCN2C(=O)[C@@H](NC(=O)[C@H](Cc2ccccc2)NC(=O)CCC(=O)NCCCOCCOCCOCCCNC(=O)CN2CCN(CC(=O)O)CCN(CC(=O)O)CCN(CC(=O)O)CC2)CSCc2cccc(c2)CSC[C@@H](C(=O)N[C@@H](CC(=O)O)C(=O)N[C@@H](Cc2c[nH]cn2)C(=O)N[C@@H](Cc2ccccc2)C(=O)N[C@@H](CCCNC(=N)N)C(=O)N[C@@H](CC(=O)O)C(N)=O)NC(=O)[C@H](Cc2ccccc2)NC(=O)[C@H](CCC(=O)O)NC1=O
notes: also called 3BP-3171
B8: Ac-Met-[Cys(3MeBn)-Pro-Pro-Thr-Glu-Phe-cys]-Asp-His-Phe-Arg-Asp-NH2 (peptide)
peptide: Ac-MCPPTEF[dC]DHFRD-NH2
modifications: linker 2-8 via mXylylene
SMILES: CSCC[C@H](NC(C)=O)C(=O)N[C@H]1CSCc2cccc(c2)CSC[C@H](C(=O)N[C@@H](CC(=O)O)C(=O)N[C@@H](Cc2c[nH]cn2)C(=O)N[C@@H](Cc2ccccc2)C(=O)N[C@@H](CCCNC(=N)N)C(=O)N[C@@H](CC(=O)O)C(N)=O)NC(=O)[C@H](Cc2ccccc2)NC(=O)[C@H](CCC(=O)O)NC(=O)[C@H]([C@@H](C)O)NC(=O)[C@@H]2CCCN2C(=O)[C@@H]2CCCN2C1=O
notes: also called 3BP-3182

Target: Recombinant human FAP (R&D systems, #3715-SE) (human, UniProt Q12884 26-760)
Experiment: cell-based or functional assay

pIC50 Category (Activity)	Binder
7.1 pIC50 and 8 pIC50	B1
7.1 pIC50 and 8 pIC50	B2
7.1 pIC50 and 8 pIC50	B3
> 8 pIC50	B4
7.1 pIC50 and 8 pIC50	B5
7.1 pIC50 and 8 pIC50	B6
7.1 pIC50 and 8 pIC50	B7
7.1 pIC50 and 8 pIC50	B8

Target: T1, fibroblast activation protein (FAP) on FAP-expressing human WI-38 fibroblasts (human, UniProt Q12884 1-760)
T1 construct: also called human FAP
Experiment: competitive FACS, WI-38 cells, vs Cy5 tracer m3; B = pIC50 7.1-8.0

pIC50 Category (FACS)	Binder
7.1 pIC50 and 8 pIC50	B1
7.1 pIC50 and 8 pIC50	B2
7.1 pIC50 and 8 pIC50	B3
7.1 pIC50 and 8 pIC50	B4
7.1 pIC50 and 8 pIC50	B5
7.1 pIC50 and 8 pIC50	B6
7.1 pIC50 and 8 pIC50	B7
7.1 pIC50 and 8 pIC50	B8
